Tested on: phiC31 integrase (Streptomyces phage phiC31?)
Test: cell_activity
Settings: E. coli, 1% L-arabinose, 32 C, 60-120 min, resuspended 4:1 in fresh LB

phiC31 attB/attP sites flanking expression cassette in pBAD.phiC31.RHB
activity (% recombination): > 97
